Experiment [1] concerns the target T1, PTP HSCF with R444 mutated to alanine, HA tagged (UniProt Q61152 1-453).
T1 construct: range 1-453; also called HSCF R444
T1 sequence (looked up): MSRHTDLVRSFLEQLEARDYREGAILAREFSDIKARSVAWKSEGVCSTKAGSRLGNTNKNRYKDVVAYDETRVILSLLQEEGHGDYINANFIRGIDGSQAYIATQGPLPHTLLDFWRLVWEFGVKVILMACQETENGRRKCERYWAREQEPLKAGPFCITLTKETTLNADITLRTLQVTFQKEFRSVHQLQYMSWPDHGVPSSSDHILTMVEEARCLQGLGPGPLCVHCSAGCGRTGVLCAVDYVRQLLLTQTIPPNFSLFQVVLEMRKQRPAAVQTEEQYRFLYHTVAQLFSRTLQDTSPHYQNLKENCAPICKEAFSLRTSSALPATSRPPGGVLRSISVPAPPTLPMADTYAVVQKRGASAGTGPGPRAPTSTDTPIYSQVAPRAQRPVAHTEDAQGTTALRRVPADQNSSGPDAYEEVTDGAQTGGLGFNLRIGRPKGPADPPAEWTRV
Put plainly: in vitro translated PTP HSCF mutant precipitated with 1 or 10 µg/ml GST PST PIP. The method, then:
(§1) Multiple bands precipitated with the GST PST PIP fusion protein are apparently C-terminal proteolyzed products of the PTP. Also shown are GST PST PIP precipitations (10 μg/ml) performed on a double mutant of PTP HSCF (R+W) with both residues $R444$ and $W450$ mutated to alanine (bottom panel FIG. 14 A/2). B. COS cells were co-transfected with a 10:1 ratio of plasmids encoding hemagglutinin (HA) tagged PTP HSCF with the illustrated alanine substitutions or a mutant of PTP HSCF deleted for the C-terminal 24 amino acids (PTP $HSCFD24$) and wild type PST PIP with a C-terminal FLAG epitope tag, respectively. Transfected cell lysates were immunoprecipitated with anti-HA monoclonal antibodies and the precipitates were blotted with anti-PST PIP polyclonal antibody to detect the relative amounts of PST PIP complexed with either wild type or different mutant forms of PTP HSCF. Lysates were also immunoprecipitated with anti-HA antibody and blotted with the same antibody to insure equal expression of PTP HSCF. Equal expression of PSTPIP was determined by immunoprecipitating lysates with anti-FLAG monoclonal antibody and blotting with anti-PST PIP polyclonal antibody.
(§2) In vitro binding analyses between various PTP HSCF and PST PIP constructs were performed as previously described (Spencer et al, (1997), supra). Briefly, plasmids were transcribed and translated in vitro using the TnT Rabbit Reticulocyte Lysate System (Promega). Samples were diluted in 50 mM HEPES, pH 7.2, 1% triton X-100, 10% glycerol, 100 mM NaCl, and 2 µg/ml each of leupeptin, pepstatin, aprotinin and PMSF (lysis buffer). Samples were than reacted with GST fusion proteins at various concentrations, and the bound proteins were centrifuged using glutathione-sepharose beads and analyzed on SDS polyacrylamide gels. C-terminally-derived peptide inhibition studies were performed by incubating the GST fusion protein binding reactions in the presence of 10 µg/ml of the indicated peptides. Peptides were produced by FMOC-protected amino acids as previously described (Spencer et al, (1997), supra). In vivo interactions between various forms of PTP HSCF and PST PIP were also performed as previously described (Spencer et al, (1997), supra).

Experiment [2] concerns the target T2, PTP HSCF with P447 mutated to alanine, HA tagged (UniProt Q61152 1-453).
T2 construct: range 1-453; also called HSCF P447
T2 sequence (looked up): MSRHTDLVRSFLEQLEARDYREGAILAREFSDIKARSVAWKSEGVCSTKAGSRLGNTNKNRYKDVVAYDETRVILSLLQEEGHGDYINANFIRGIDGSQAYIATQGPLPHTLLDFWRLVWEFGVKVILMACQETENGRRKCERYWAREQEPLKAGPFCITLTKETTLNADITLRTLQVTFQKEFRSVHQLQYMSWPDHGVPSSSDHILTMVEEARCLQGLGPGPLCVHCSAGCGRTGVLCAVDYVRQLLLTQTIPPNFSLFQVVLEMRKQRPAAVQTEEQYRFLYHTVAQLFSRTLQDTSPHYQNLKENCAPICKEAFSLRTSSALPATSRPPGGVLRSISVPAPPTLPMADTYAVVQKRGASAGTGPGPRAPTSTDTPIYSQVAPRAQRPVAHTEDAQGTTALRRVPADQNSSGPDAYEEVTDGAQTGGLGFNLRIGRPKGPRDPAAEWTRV
Described as above. The method, then: as §1, §2

The test system of the next experiment is 3T3 cells. Briefly: Overexpression of PSTPIP in transfected 3T3 cells, confocal microscopy. Particulars: overexpression under cytomegalovirus promoter. The class given is cell-based, murine. The procedure:
Rabbit polyclonal antibodies were produced against a GST-PSTPIP fusion protein. The complete PSTPIP-GST fusion protein was purified on GSH-sepharose and injected intramuscularly at 2 sites with 200 μg fusion protein and subcutaneously at multiple sites with a total of 300 μg PSTPIP-GST fusion protein in Complete Freunds Adjuvant. Rabbits were boosted every 3 weeks with 100 μg fusion protein in Incomplete Freunds. 15 ml of rabbit sera was reacted with 0.5 mg PSTPIP-GST-GSH-Sepharose for 3 hours at 4° C. with gentle rotation. The resin was collected by centrifugation and washed with 10 column volumes of PBS. Immunoglobulin was eluted from the affinity matrix with 100 mM acetic acid, 500 mM NaCl, neutralized with NaOH, and then dialyzed overnight with PBS. NIH 3T3 cells were seeded at 100,000 cells per chamber slide and allowed to adhere overnight. The cells were transfected using Lipofectamine™ (2 ug pRK.PIP.FLAG.C/12 ul Lipofectamine in 0.8 ml OPTI-MEM) for 5 hours. The DNA/Lipofectamine™ solution was removed and fresh serum containing medium added. […] Cells were stained with 0.4 μg/ml rabbit anti-PIP or 0.4 μg/ml rabbit IgG and detected with Cy3-corjugated goat anti-rabbit. […]

B1: GST-PSTPIP (GST fusion of full-length PSTPIP, amino acids 2-415) (other)
chain: MAQLQFRDAFWCRDFTAHTGYEVLLQRLLDGRKMCKDVEELLRQRAQAEERYGKELVQIARKAGGQTEMNSLRTSFDSLKQQTENVGSAHIQLALALREELRSLEEFRERQKEQRKKYEAIMDRVQKSKLSLYKKTMESKKAYDQKCRDADDAEQAFERVSANGHQKQVEKSQNKAKQCKESATEAERVYRQNIEQLERARTEWEQEHRTTCEAFQLQEFDRLTILRNALWVHCNQLSMQCVKDDELYEEVRLTLEGCDVEGDINGFIQSKSTGREPPAPVPYQNYYDREVTPLIGSPSIQPSCGVIKRFSGLLHGSPKTTPSAPAASTETLTPTPERNELVYASIEVQATQGNLNSSAQDYRALYDYTAQNSDELDISAGDILAVILEGEDGWWTVERNGQRGFVPGSYLEKL
notes: Made in DH5-alpha bacteria from pGEX4T-2; also called GST-full-length PSTPIP; GST PTP PIP; not shown: glutathione S-transferase encoded by pGEX-4T-2 (Pharmacia)
For the molecule B1, the binding result in experiment [1] and in experiment [2] was “binds” throughout.

B2: PSTPIP: murine PST Phosphatase Interacting Protein, 415 residues (SEQ ID NO:1) (protein)
chain: MMAQLQFRDAFWCRDFTAHTGYEVLLQRLLDGRKMCKDVEELLRQRAQAEERYGKELVQIARKAGGQTEMNSLRTSFDSLKQQTENVGSAHIQLALALREELRSLEEFRERQKEQRKKYEAIMDRVQKSKLSLYKKTMESKKAYDQKCRDADDAEQAFERVSANGHQKQVEKSQNKAKQCKESATEAERVYRQNIEQLERARTEWEQEHRTTCEAFQLQEFDRLTILRNALWVHCNQLSMQCVKDDELYEEVRLTLEGCDVEGDINGFIQSKSTGREPPAPVPYQNYYDREVTPLIGSPSIQPSCGVIKRFSGLLHGSPKTTPSAPAASTETLTPTPERNELVYASIEVQATQGNLNSSAQDYRALYDYTAQNSDELDISAGDILAVILEGEDGWWTVERNGQRGFVPGSYLEKL
modifications: Mus Musculus
On to B2, for which the “cell morphology on overexpression” value with 3T3 cells is “induced a remarkable morphological change in a high percentage of cells”.
